The values below come from paper PMC5584224, “Peptide-based PET imaging of the tumor restricted IL13RA2 biomarker” (Oncotarget, 2017).

Where “and” joins values, the source holds several entries; their conditions need not be identical. Identical values can stand only once. Non-standard residues stand in square brackets, D forms with d. Residues, ends and D or L forms follow the SMILES beside them. *: point of attachment. Biotin = O=C1N[C@H]2[C@H](CS[C@H]2CCCCC(=O)*)N1; Ahx = NCCCCCC(=O)O

The nature of data set [1]: in vivo. On the set-up: species or system mice. Conditions: athymic nude, mouse, iv, total radioactivity, tumor uptake. How it is done: (§1) 7 days after tumor cell implantations, mice were divided into induced and uninduced (control) groups (n=4/group). To induce hIL13RA2 expression, doxycycline was administered intraperitoneally (2.5 mg/mouse) every 12 hours for 2 days. After IL13RA2-induction, [^64Cu]Pep-1L was intravenously injected to mice bearing induced or control (uninduced) subcutaneous tumors and microPET/CT imaging was performed 4 h post intravenous injection. […] Other notable findings were that there was radiotracer accumulation in liver and kidney in both induced and control animals, which are primary organs for peptide clearance. […]
(§2) B16F10 murine melanoma cell line was cultured in DMEM base media. […] Cell number was calculated using a hemocytometer and required number of B16F10 cells was suspended in DMEM media. […]
(§3) Mice bearing subcutaneous tumors were grouped into two groups (n=4) and placed in an induction chamber containing ~2% isoflurane/oxygen then secured to a custom double bed for placement of tail vein catheters. […] Samples of tumor, blood, lung, liver, spleen, kidney, muscle and heart were harvested, weighed and then counted on the gamma counter with a standard dilution of the injectate. The percentage of the injected dose per gram of tissue (%ID/g) was calculated as described above with p values ≤ .05 considered statistically significant (n=4).

The subject of data set [2] is IL13RA2-expressing G48 cells. Briefly: In vitro cell uptake assay with and without unlabeled Pep-1L blockade. Type of data set: cell-based, human. How it is done:
Previously, we reported that this cell line contains about 4,000,000 IL13RA2 binding sites.
Figure 3 Cell uptake of [^64Cu]Pep-1L Uptake of [^64Cu]Pep-1L in IL13RA2-expressing G48 cells after 1, 3, and 4 h of exposure. […] The data were expressed as % injected dose (ID)/mg of protein present in each well with p values ≤ .005 considered statistically significant (n=6).
The in vitro reactivity, binding affinity and specificity for [^64Cu]Pep-1L were determined using human GBM cell line G48, following previously reported methods. 1 × 10^5 cells were then seeded into each well of a 6-well culture. G48 cells were incubated overnight at 37°C with 5% CO2 in an incubator. […] The radioactivity was counted using the Wallac 1480 Wizard gamma counter (Perkin Elmer, Turku, Finland). […]
The uptake data in each sample from each well and the standard counts for each condition were expressed as counts per minute (cpm) of activity and were decay corrected for elapsed time. The cpm values of each well were normalized to the amount of radioactivity added to each well and the protein concentration in the well and expressed as percent uptake relative to the control condition. The data were expressed as %ID/mg of protein present in each well with p values ≤ 0.005 considered statistically significant.

For data set [3], the system named is B16F10-Tet-hIL13RA2 tumors. Briefly: microPET/CT imaging, ROI analysis, in doxycycline-inducible B16F10-Tet-hIL13RA2 tumor model. It is filed as in vivo, mice. As to the method:
as §1, §2, §3

A short description of data set [4]: Biodistribution in mice bearing IL13RA2-expressing G48 xenografts. It is filed as in vivo. Particulars: athymic nude, mouse, in vivo, iv, total radioactivity. How it is done: (§4) Biodistribution studies with [^64Cu]Pep-1L were performed in mice bearing IL13RA2-expressing G48 tumors (n=4) to confirm in vivo binding. […] The uptake ratios for target to non-target (tumor: muscle) increased from 3.7 to 6.0 from 4 h to 24 h (Figure 4B).
(§5) Figure 4 In vivo properties of [^64Cu]Pep-1L (A) biodistribution and (B) tumor-to-muscle (target: nontarget) ratio of [^64Cu]Pep-1L in mice bearing IL13RA2-expressing tumor xenografts 4h and 24h post injection (n=4) with p values ≤ .05 considered statistically significant.
(§6) Athymic nude mice (Taconic Farms) were housed in a pathogen-free facility of the Animal Research Program at Wake Forest School of Medicine under a 12:12-h light/dark cycle and fed ad libitum. All animal experiments were conducted under IACUC approved protocols in compliance with the guidelines for the care and use of research animals established by Wake Forest Medical School Animal Studies Committee. IL13RA2-expressing G48 tumors cells (1 × 10^5 cells suspended in 10 μL) were implanted in the left flank of nude mice (25-30 g) as described previously. The presence of viable tumors was confirmed through bioluminescence imaging. Standard biodistribution studies were performed in the same nude mice with flank tumors (n=4) at 10-15 days after tumor implantation. Mice were anesthetized with 1% isoflurane-oxygen and approximately 3.7- 4.6 MBq of [^64Cu]Pep-1L was administered via tail vein injection. […] Peptide concentration of 15 mg/kg was used as the blocking agent and was intravenously injected via tail vein 15 min prior to the radiotracer. The tumor and organs of interest were dissected and gamma counted using Wallac 1480 Wizard gamma counter (Perkin Elmer, Turku, Finland). The concentration of the radioactivity in the tumor and organs were expressed in percentage injected dose per gram (%ID/g) of radioactivity with p values ≤ .05 considered statistically significant and uptake ratio of tumor-to-muscle was calculated.

Data set [5] has as its system IL13RA2-expressing G48 tumors. The description is as above. Conditions: G48 tumor bearing mice, 24 h post injection, non-blockade vs blockade group. Type of data set: in vivo. How it is done:
as §4, §5, §6

Data set [6] can be described thus: in vitro. Conditions: human, human serum.
Protocol: The in vitro serum stability of the radiotracer [^64Cu]Pep-1L in human serum was performed at different time points and was analyzed through radioTLC spotting (Figure 2).
Figure 2 In vitro serum stability of [^64Cu]Pep-1L Reverse-phase C18 radio-TLC analysis of [^64Cu]Pep-1L over a 24 hour period post production.
The in vitro serum stability of [^64Cu]Pep-1L was performed using human serum (Sigma Aldrich) following previously published methods [38, 48]. Approximately 0.037 MBq/10 μL of [^64Cu]Pep-1L was added to the serum vial, to a final volume of 100 μL and incubated at 37°C [35]. 1 μL of the sample mixture was removed and spotted on a reverse C18-TLC plate at 1 h, 2 h, 4 h, 18 h and 24 h after the radiotracer synthesis and the percentage of bound Cu-64 was determined through radioTLC analysis as mentioned above [48].
The conditions of data set [7]: cited from earlier work. From the text: Pep-1L was conjugated with NOTA, a chelator that can form a six-coordinate complex with Cu-64 that results in a high stability constant (log K=21.6) by CPC scientific Inc.. […] The Cu-64 radiolabeling conditions for Pep-1L were well optimized in this work for high radiochemical purity of >98%, without any need for additional purification methodologies with a specific activity of 32-35 MBq/μg (Figure 1).

Usually fraction remaining stands for the share of the starting amount still present when the sample was taken. For the molecule `CSCC[C@H](NC(=O)[C@H](CCC(=O)O)NC(=O)CNC(=O)[C@H](CS)NC(=O)[C@H](C)N)C(=O)NCC(=O)N[C@@H](Cc1c[nH]c2ccccc12)C(=O)N[C@H](C(=O)N[C@@H](CCCNC(=N)N)C(=O)N[C@@H](CS)C(=O)NCC(=O)NCC(=O)NCC(=O)N[C@@H](CO)C(=O)NCCCCCC(=O)N[C@@H](CCCCN)C(=O)N[C@@H](CCCCNC(=O)CCCC[C@@H]1SC[C@@H]2NC(=O)N[C@@H]21)C(N)=O)C(C)C` [[^64Cu]Pep-1L, metal not drawn] (H-ACGEMGWVRCGGGS[Ahx]KK(Biotin)-NH2), the tissue uptake at 4 h in data set [1] (doxycycline-induced tumors) is 14.1 ± 0.246 %ID/g; in data set [1] (non-induced tumors), 4.179 ± 0.007 %ID/g; in data set [4] (brain uptake, 4 h) it was approximately 0.013 %ID/g; in data set [4] (nude mice with G48 flank tumors, 3.7-4.6 MBq i.v. tail vein, 4 h post injection, gamma counting, mean ± SD, n=4, read-out: tumor uptake, 4 h), 1.38 ± 0.09 %ID/g. Besides, the “cell uptake in G48 cells under binding site blockade with unlabeled Pep-1L” value in data set [2] (0.0185 MBq/well, 37°C, 1, 3, 4 h, blocker 5 μM (50x excess) unlabeled peptide 15 min before tracer, gamma counting, %ID/mg protein) is on record as “significantly inhibited”. In data set [2] (37°C, 1 to 4 h exposure), the “course of cell uptake over time” value is listed as “continued increase”. Also, the “tumor accumulation, doxycycline-induced vs non-induced (ROI analysis of microPET/CT)” value in data set [3] (athymic nude mice, 4.62-5.5 MBq i.v., 20 min scan 4 h post injection, doxycycline 2.5 mg/mouse i.p. every 12 h for 2 days, n=4/group) was ~ 3 fold. The “binding of induced vs uninduced tumors (PET/CT and post-necropsy biodistribution, abstract)” value in data set [3] (summary of PET/CT and post-necropsy biodistribution, doxycycline pretreatment) was 3-4 fold. For the same molecule, the tissue to tissue ratio at 4 h in data set [4] came to 3.7. Besides, in data set [4], the tissue to tissue ratio at 24 h stood at 6. For the same molecule, the tissue uptake at 24 h in data set [4] (blood uptake, 24 h non-blockade) was 0.62 ± 0.579 %ID/g; in data set [4] (brain uptake, 24 h) it was approximately 0.009 %ID/g; in data set [4] (heart uptake, 24 h non-blockade), 1.21 ± 1.01 %ID/g; in data set [4] (kidney uptake, 24 h non-blockade), 17.4 ± 1.41 %ID/g; in data set [4] (liver uptake, 24 h non-blockade), 9.86 ± 1.59 %ID/g; in data set [4] (lung uptake, 24 h non-blockade), 3.58 ± 1.08 %ID/g. Moreover, the tissue uptake at 24 h in data set [4] (muscle uptake, 24 h non-blockade) stood at 0.41 ± 0.038 %ID/g; in data set [4] (tumor uptake, 24 h non-blockade) it was 2.43 ± 0.626 %ID/g. In addition, the “blockade of tumor uptake by pre-injected unlabeled peptide” value in data set [5] was 5 fold and 3 fold. In addition, the fraction remaining at 24 h, 0.37 MBq/mL in data set [6] is approximately 90%.

Consider `O=C(O)CN1CCN(CC(=O)O)CCN(CC(=O)O)CC1` [NOTA, 1,4,7-triazacyclononane-1,4,7-triacetic acid], for which the “stability constant (log K) of six-coordinate complex with Cu-64” value in data set [7] was 21.6.
